Usually IC50 stands for the point on the concentration scale where inhibition reaches its midpoint.

The results in this text go back to US20160272683A1 (Novo Nordisk, published 2016).

Numbered stars: 1 amine (or outer) side, 2 acyl side, 3 side chain; on linkers, the order of the positions; unused ones are H or OH. * marks the point of attachment. C18 diacid = O=C(O)CCCCCCCCCCCCCCCCC(=O)*; C16 diacid = O=C(O)CCCCCCCCCCCCCCC(=O)*; γGlu = O=C(O)[C@H](CCC(=O)[*:2])N[*:1]; C14 diacid = O=C(O)CCCCCCCCCCCCC(=O)*; C12 diacid = O=C(O)CCCCCCCCCCC(=O)*; Palmitoyl = CCCCCCCCCCCCCCCC(=O)*; AEEA = NCCOCCOCC(=O)O

Sequences and labels used below:
T1: human amylin receptor (human calcitonin receptor + human RAMP3) (human) (UniProt P30988)
T1 sequence (looked up) 1: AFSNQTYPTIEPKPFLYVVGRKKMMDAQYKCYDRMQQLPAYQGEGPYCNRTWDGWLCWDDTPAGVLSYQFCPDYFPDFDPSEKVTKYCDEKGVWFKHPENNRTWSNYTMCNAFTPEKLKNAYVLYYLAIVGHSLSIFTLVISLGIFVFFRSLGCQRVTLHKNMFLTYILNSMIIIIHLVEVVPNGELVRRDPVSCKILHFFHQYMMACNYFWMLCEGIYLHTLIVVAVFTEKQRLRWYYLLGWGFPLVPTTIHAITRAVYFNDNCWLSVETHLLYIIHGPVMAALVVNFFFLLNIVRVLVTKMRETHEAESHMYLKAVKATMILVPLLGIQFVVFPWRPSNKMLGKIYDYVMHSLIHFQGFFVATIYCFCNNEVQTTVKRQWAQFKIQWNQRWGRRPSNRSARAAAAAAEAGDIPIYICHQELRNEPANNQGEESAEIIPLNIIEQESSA
T1 sequence (looked up) 2: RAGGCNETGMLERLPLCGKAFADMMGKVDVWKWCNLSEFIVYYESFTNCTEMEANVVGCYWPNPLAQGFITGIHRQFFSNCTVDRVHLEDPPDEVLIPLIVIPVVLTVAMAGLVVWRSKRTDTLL

B1: [N-terminal(C18 diacid), 9I]mimylin (peptide)
peptide: {C18 diacid}-EASELSTAILGRLSAELHELATLPRTETGPESP-NH2
SMILES: CC[C@H](C)[C@H](NC(=O)[C@H](C)NC(=O)[C@@H](NC(=O)[C@H](CO)NC(=O)[C@H](CC(C)C)NC(=O)[C@H](CCC(=O)O)NC(=O)[C@H](CO)NC(=O)[C@H](C)NC(=O)[C@H](CCC(=O)O)NC(=O)CCCCCCCCCCCCCCCCC(=O)O)[C@@H](C)O)C(=O)N[C@@H](CC(C)C)C(=O)NCC(=O)N[C@@H](CCCNC(=N)N)C(=O)N[C@@H](CC(C)C)C(=O)N[C@@H](CO)C(=O)N[C@@H](C)C(=O)N[C@@H](CCC(=O)O)C(=O)N[C@@H](CC(C)C)C(=O)N[C@@H](Cc1c[nH]cn1)C(=O)N[C@@H](CCC(=O)O)C(=O)N[C@@H](CC(C)C)C(=O)N[C@@H](C)C(=O)N[C@H](C(=O)N[C@@H](CC(C)C)C(=O)N1CCC[C@H]1C(=O)N[C@@H](CCCNC(=N)N)C(=O)N[C@H](C(=O)N[C@@H](CCC(=O)O)C(=O)N[C@H](C(=O)NCC(=O)N1CCC[C@H]1C(=O)N[C@@H](CCC(=O)O)C(=O)N[C@@H](CO)C(=O)N1CCC[C@H]1C(N)=O)[C@@H](C)O)[C@@H](C)O)[C@@H](C)O
B2: [N-terminal(C18 diacid), 5I]mimylin (peptide)
peptide: {C18 diacid}-EASEISTAALGRLSAELHELATLPRTETGPESP-NH2
SMILES: CC[C@H](C)[C@H](NC(=O)[C@H](CCC(=O)O)NC(=O)[C@H](CO)NC(=O)[C@H](C)NC(=O)[C@H](CCC(=O)O)NC(=O)CCCCCCCCCCCCCCCCC(=O)O)C(=O)N[C@@H](CO)C(=O)N[C@H](C(=O)N[C@@H](C)C(=O)N[C@@H](C)C(=O)N[C@@H](CC(C)C)C(=O)NCC(=O)N[C@@H](CCCNC(=N)N)C(=O)N[C@@H](CC(C)C)C(=O)N[C@@H](CO)C(=O)N[C@@H](C)C(=O)N[C@@H](CCC(=O)O)C(=O)N[C@@H](CC(C)C)C(=O)N[C@@H](Cc1c[nH]cn1)C(=O)N[C@@H](CCC(=O)O)C(=O)N[C@@H](CC(C)C)C(=O)N[C@@H](C)C(=O)N[C@H](C(=O)N[C@@H](CC(C)C)C(=O)N1CCC[C@H]1C(=O)N[C@@H](CCCNC(=N)N)C(=O)N[C@H](C(=O)N[C@@H](CCC(=O)O)C(=O)N[C@H](C(=O)NCC(=O)N1CCC[C@H]1C(=O)N[C@@H](CCC(=O)O)C(=O)N[C@@H](CO)C(=O)N1CCC[C@H]1C(N)=O)[C@@H](C)O)[C@@H](C)O)[C@@H](C)O)[C@@H](C)O

In the assay the target is T1, human amylin receptor (human calcitonin receptor + human RAMP3) (human). Kind of assay: whole-cell competition vs 125I-rat amylin (Assay Va).
For B1, the IC50 came out at 0.417 nM.
To {C14 diacid-γGlu-γGlu-AEEA-AEEA-AEEA-AEEA}-EASELSTAALGRLSAELHELATLPRTETGPESP-NH2 [[N-terminal(C14 diacid-2xgGlu-4xOEG)]mimylin] belongs 8.38 nM; to Palmitoyl-EASELSTAALGRLSAELHELATLPRTETGPESP-NH2 [[N-terminal(C16)]mimylin], 0.435 nM; to {C12 diacid}-EASELSTAALGRLSAELHELATLPRTETGPESP-NH2 [[N-terminal(C12 diacid)]mimylin], 8.97 nM.
In the case of {C16 diacid}-EASELSTAALGRLSAELHELATLPRTETGPESP-NH2 [[N-terminal(C16 diacid)]mimylin], the IC50 amounted to 0.498 nM.
To B2 belongs 0.429 nM.
